Numbering of substitutions follows the chain as printed. Like-named read-outs stand apart in the source and are kept apart here.
What was measured:
[1] = target: T1, native full-length human complement component C5 (human, UniProt P01031 19-673; P01031 678-1676); experiment: SPR (Biacore T200), antibody on CM5 chip, antigen 0-10 nM
T1 construct: mature; The native protein has two disulfide-linked chains (alpha and beta) made from one precursor; also called human native C5
Procedure: (§1) The affinities for eC5a and c5 at various concentrations were measured. […] The concentrations of 0.625 and 0 nM were repeated once. Using the SPR technology, the association and dissociation rates were measured, and binding affinity was determined.

[2] = target: T2, human C5a (source not stated) (human, UniProt P01031 678-751); experiment: cell-based or functional assay
T2 sequence: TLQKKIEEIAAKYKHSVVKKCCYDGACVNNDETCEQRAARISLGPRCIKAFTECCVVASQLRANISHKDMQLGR

[3] = target: T2, human C5a (source not stated); experiment: cell-based or functional assay; remark: listed apart in the source
human recombinant C5a = target: T3, human recombinant C5a (human, UniProt P01031 678-751); experiment: ELISA, plate coated with human rC5a, scFv titrated, OD410
T3 construct: Full-length human C5a; also called rC5a; human C5a
T3 sequence: T2 sequence
Procedure: Monoclonal scFv antibodies were selected and subjected to ligand binding assays. The binding assay was designed to identify scFv antibodies that bound human recombinant C5a or endogenous C5a. Briefly, a 96-well plate was coated with human rC5a or eC5a in PBS at 0.1 µg/well and left overnight at 4° C. Before loading the scFv antibodies, the plates were washed with TBST, blocked for 1-2 hours at 37° C. using 5% milk and washed again with TBST. Each scFv sample was first diluted to 10 µg/mL, and 150 µL was added to the first row of wells. The 10 µg/mL scFv samples were then serially diluted at a 1:3 ratio and added to the remaining wells. After incubating for 1 hour at 37° C., followed by washing with TBST 6 times, 100µl of the primary antibody and secondary antibody mixture (mouse anti-flag (1:2500) and anti-mouse FC-AP (1:2000)) was added to each well. After incubation for 1 hour under 37° C., the plate was washed 3 times using TBST. pNPP was then added at 50 µL/well and incubated for 10-20 minutes at 37° C. 50 µL 3 M NaOH was used to stop the reaction. The ELISA results (OD410) were then analyzed and the binding curves were generated by PRISM.

C5a-E32A = target: T4, C5a-E32A; experiment: ELISA on the coated C5a protein, antibody titrated, OD410
T4 single chain: T2 sequence with E32A

C5a-T33A [4] = target: T5, C5a-T33A; experiment: as above
T5 single chain: T2 sequence with T33A

C5a-Q36A [5] = target: T6, C5a-Q36A; experiment: as above
T6 single chain: T2 sequence with Q36A

C5a-R40A [6] = target: T7, C5a-R40A; experiment: as above
T7 single chain: T2 sequence with R40A

human endogenous C5a = target: T8, human endogenous C5a (human, UniProt P01031 678-751, limits assumed); experiment: SPR (Biacore T200), antibody on CM5 chip, antigen 0-10 nM
T8 construct: Endogenous human C5a; also called eC5a
T8 sequence: T2 sequence
Procedure: as §1

[7] = target: T1, native full-length human complement …; experiment: ELISA, plate coated with human native C5, full-length antibody titrated, OD410
[8] = target: T1, native full-length human complement …; experiment: SPR (Biacore T200), antibody on CM5 chip, antigen 0-10 nM; SPR (Biacore T200), Cab05-IgG4 on CM5 chip, C5 at 0-10 nM: no signal, given only as a lower bound on Kd
Procedure: as §1

C5a-T33A [9] = target: T5, C5a-T33A; experiment: ELISA on the coated C5a protein, antibody titrated, OD410
C5a-Q36A [10] = target: T6, C5a-Q36A; experiment: as above
C5a-R40A [11] = target: T7, C5a-R40A; experiment: as above

T1 sequence (P01031 19-673 limits assumed, one chain of several): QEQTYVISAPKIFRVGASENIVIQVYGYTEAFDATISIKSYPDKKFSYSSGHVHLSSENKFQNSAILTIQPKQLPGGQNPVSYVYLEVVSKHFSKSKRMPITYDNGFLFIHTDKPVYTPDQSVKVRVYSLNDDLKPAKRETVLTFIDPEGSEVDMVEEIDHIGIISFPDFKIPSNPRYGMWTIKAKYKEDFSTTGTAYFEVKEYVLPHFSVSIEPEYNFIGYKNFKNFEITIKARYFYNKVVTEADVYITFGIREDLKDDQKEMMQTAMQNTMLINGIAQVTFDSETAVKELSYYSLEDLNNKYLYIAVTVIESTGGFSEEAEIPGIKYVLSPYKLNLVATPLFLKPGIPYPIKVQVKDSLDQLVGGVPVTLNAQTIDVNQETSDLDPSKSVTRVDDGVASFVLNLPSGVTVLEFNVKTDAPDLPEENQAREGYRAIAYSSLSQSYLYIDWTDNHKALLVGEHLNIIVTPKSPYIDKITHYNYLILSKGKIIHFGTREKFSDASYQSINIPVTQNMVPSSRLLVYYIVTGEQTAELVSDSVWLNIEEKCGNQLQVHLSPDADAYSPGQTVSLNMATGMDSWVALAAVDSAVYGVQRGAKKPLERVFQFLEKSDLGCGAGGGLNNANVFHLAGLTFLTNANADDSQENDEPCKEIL

B1: INab308 (antibody, V domains shown)
VH: QVQLQQSGPQLVRPGTSVKISCKASGYSFTTFWMDWVKQRPGQGLEWIGRIDPSDSESRLDQRFKDRATLTVDKSSSTVYMQLSSPTSEDSAVYYCARGNDGYYGFAYWGQGTLVTVSS
VL: DIVLTQSPASLAVSLGQRATISCKASQSVDYDGDSYMKWYQQKPGQPPKLLIYAASNLQSGIPARFSGSGSGTDFTLNIHPVEEEDAATYYCQQSNEDPYTFGGGTKLEIK
Question: B1 was tested. Which Kd [1] did it give?
Answer: 0.743 nM

Question: What about the koff [1] of the same binder?
Answer: 0.000218 s⁻¹

Question: What about the kon [1] of the same binder?
Answer: 293000 M⁻¹ s⁻¹

B2: Cab03 scFv (scFv, V domains shown)
VH: EVQLVESGGGLVQPGGSLKVSCAASGFIFSDYYMQWVRQAPGKGPEWVGLIRKKVNGGTTEYAASVKGRFTISRDDSKSIVYLQMSSLKIEDTAVYYCVSRAGPPGLTWGQGVLVTVSS
VL: DIVLTQTPLSLAVSPGEPASISCRSSQSLLASDGYTYLDWYLQKPGQSPQILIYGGSNRASGVPDRFSGRGSGTDFTLKITKVEAEDVGVYYCLQHRALPPTFGQGTKLEIK
Question: For B2, which “ROS IC50” value [2] is on record?
Answer: 1.41 nM

B3: Cab05 scFv (scFv, V domains shown)
VH: EMQLVESGGGLVQPGGSLRLSCAASGFTFSDYYMQWVRQAPGKGPEWVGLIRNKAVGGTTQYAASVKGRFTISRDDSKNSVYLQMNSLKTEDTAVYYCVSRAGPPGLSWGQGVLVTVSS
VL: DIVMTQSPLSLPVTPGEPASISCRSSQSLLASDGYNYIDWYLQKPGQSPQLLIYGGSNRASGVPDRFSGSGSGTDFTLKISRVEAEDVGVYFCLQHRALPPTFGQGTKLEIK
notes: scFv
Question: Which “ROS IC50” value [2] does the source give for B3 here?
Answer: 1.56 nM

Question: And the “ROS IC50” value [3]?
Answer: 1.56 nM

Question: What about the “EC50 (read off the curve)” value (human recombinant C5a) of the same binder?
Answer: ~0.03 µg/mL

B4: Cab44-IgG1 (antibody, V domains shown)
VH: EVQLVESGGGLVQPGGSLRLSCAASGFTFSNYYIQWVRQAPGKGPEWVGLIRNKAIGETTEFAASVKGRFTISRDDSKNSVYLQMNSLKTEDTAVYYCAGRLGPPGLTWGQGVLVTVSS
VL: B3 VL with S32T, N36E, I38L, G56A, F92Y, R97K
notes: Full-length human IgG1
Question: How did the “ROS IC50” value [3] turn out when B4 was run?
Answer: 0.51 nM

Question: Does B4 bind (C5a-E32A)?
Answer: binds

Question: Does B4 bind (C5a-T33A [4])?
Answer: binds

Question: Does B4 bind (C5a-Q36A [5])?
Answer: binds

Question: Does B4 bind (C5a-R40A [6])?
Answer: binds

B5: Cab05-IgG4 (antibody, V domains shown)
VH: B3 VH
VL: B3 VL
notes: Full-length human IgG4 with a human kappa or lambda light chain constant domain
Question: B5 was tested. Which Kd (human endogenous C5a) did it give?
Answer: 0.105 nM

Question: What about the koff (human endogenous C5a) of the same binder?
Answer: 4.22e-05 s⁻¹

Question: What about the kon (human endogenous C5a) of the same binder?
Answer: 402000 M⁻¹ s⁻¹

Question: What about the “EC50 (read off the curve)” value [7] of the same binder?
Answer: ~0.03 µg/mL

Question: What about the Kd [8] of the same binder?
Answer: > 100 nM

B6: Cab04 scFv (scFv, V domains shown)
VH: B3 VH with M2V, E6Q, R19K, L20V, V56I, N79S, S80I, N86S, L114V
VL: DIVMIQTPLSLPVTPGEPASISCRSSQRLLHTDGYTYLDWYLQKPGQSPQLLIYGGSNRASGVPDRFSGSGSGSDFTLKISKVEAEDVGVYYCLQHKALPLTFGGGTKLEIK
Question: How did the “ROS IC50” value [2] turn out when B6 was run?
Answer: 1.87 nM

B7: Cab43 (reformatted as human IgG1) (antibody, V domains shown)
VH: B4 VH
VL: B3 VL with S28N, S32T, N36T, I38L, N58K, F92Y
Question: B7 was tested. Which “ROS IC50” value [3] did it give?
Answer: 0.62 nM

B8: Cab45-IgG1 (antibody, V domains shown)
VH: B3 VH with M2V, M34I, Q61T, V81A, Y97F
VL: B3 VL with S28N, S32T, N36T, I38L, N58K, F92Y
notes: Full-length human IgG1
Question: What does the source list for B8?
Answer: ROS IC50 [3]: 0.64 nM; binding result (C5a-T33A [9]): binds; binding result (C5a-Q36A [10]): binds; binding result (C5a-R40A [11]): binds

B9: Cab35-IgG1 (antibody, V domains shown)
VH: B3 VH with G58E
VL: B3 VL
Question: B9 was tested. Which “ROS IC50” value [3] did it give?
Answer: 1.28 nM

B10: Cab38 (reformatted as human IgG1) (antibody, V domains shown)
VH: B3 VH with G58H
VL: B3 VL
Question: How did the “ROS IC50” value [3] turn out when B10 was run?
Answer: 0.53 nM

— patent US20230257454A1 (STAIDSON BEIJING BIOPHARMACEUTICALS, published 2023)
